Measurements as given in patent publication US20210395392A1 (Bristol-Myers Squibb, published 2021).

What was measured:
[1] = molecular target: T1, Recombinant soluble extracellular domain of mouse MerTK (mouse, UniProt Q60805 19-497); assay: SPR, soluble MerTK ECD; format for mouse mAbs not detailed
T1 construct: SPR analyte; also called mMerTK
T1 sequence: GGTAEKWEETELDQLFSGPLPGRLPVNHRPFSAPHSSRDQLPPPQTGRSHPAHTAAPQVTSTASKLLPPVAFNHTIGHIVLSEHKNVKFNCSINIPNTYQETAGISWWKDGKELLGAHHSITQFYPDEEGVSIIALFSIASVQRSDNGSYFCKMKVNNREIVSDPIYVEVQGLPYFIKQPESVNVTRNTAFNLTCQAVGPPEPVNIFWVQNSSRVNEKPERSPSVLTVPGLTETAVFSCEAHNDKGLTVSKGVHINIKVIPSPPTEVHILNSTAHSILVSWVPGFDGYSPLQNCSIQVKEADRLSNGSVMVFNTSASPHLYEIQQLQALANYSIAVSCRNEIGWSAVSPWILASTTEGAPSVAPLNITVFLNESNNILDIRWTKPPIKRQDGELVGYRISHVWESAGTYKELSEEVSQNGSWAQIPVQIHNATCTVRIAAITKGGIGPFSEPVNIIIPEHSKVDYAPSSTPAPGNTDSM

[2] = molecular target: T2, Recombinant soluble extracellular domain of human MerTK (human, UniProt Q12866 21-505); assay: as above
T2 construct: SPR analyte; also called hMerTK
T2 sequence: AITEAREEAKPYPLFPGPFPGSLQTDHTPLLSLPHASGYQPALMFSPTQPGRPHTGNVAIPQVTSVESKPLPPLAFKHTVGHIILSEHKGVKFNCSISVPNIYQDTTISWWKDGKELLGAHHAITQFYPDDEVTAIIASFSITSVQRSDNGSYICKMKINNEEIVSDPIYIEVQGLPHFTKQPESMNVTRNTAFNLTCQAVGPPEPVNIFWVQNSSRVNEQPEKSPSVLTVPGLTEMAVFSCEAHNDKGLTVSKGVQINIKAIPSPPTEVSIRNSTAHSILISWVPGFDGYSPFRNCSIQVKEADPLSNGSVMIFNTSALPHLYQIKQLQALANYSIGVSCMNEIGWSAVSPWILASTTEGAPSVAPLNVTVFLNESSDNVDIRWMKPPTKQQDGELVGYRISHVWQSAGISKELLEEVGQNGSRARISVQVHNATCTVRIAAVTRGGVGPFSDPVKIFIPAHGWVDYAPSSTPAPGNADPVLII

[3] = molecular target: T3, Recombinant soluble extracellular domain of cynomolgus monkey MerTK (cynomolgus monkey, UniProt Q12866 21-505 (human entry)); assay: as above
T3 construct: SPR analyte; also called cMerTK; Cynomolgus MerTK
T3 chain: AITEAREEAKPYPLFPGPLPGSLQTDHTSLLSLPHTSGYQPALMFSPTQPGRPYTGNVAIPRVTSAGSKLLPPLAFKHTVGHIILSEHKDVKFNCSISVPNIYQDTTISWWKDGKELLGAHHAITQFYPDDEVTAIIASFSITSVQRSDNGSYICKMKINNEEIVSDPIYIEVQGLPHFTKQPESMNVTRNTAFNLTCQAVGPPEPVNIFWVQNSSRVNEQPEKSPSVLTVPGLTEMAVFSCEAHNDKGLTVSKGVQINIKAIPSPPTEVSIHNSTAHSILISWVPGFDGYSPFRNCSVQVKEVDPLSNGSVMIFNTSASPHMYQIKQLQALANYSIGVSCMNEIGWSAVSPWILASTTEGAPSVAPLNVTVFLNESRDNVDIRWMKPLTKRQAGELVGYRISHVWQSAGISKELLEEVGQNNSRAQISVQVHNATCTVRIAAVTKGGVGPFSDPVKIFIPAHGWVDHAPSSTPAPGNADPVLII

[4] = molecular target: T4, Human MerTK on hMerTK-expressing cells (human, UniProt Q12866 21-999); assay: cell-based or functional assay
T4 sequence: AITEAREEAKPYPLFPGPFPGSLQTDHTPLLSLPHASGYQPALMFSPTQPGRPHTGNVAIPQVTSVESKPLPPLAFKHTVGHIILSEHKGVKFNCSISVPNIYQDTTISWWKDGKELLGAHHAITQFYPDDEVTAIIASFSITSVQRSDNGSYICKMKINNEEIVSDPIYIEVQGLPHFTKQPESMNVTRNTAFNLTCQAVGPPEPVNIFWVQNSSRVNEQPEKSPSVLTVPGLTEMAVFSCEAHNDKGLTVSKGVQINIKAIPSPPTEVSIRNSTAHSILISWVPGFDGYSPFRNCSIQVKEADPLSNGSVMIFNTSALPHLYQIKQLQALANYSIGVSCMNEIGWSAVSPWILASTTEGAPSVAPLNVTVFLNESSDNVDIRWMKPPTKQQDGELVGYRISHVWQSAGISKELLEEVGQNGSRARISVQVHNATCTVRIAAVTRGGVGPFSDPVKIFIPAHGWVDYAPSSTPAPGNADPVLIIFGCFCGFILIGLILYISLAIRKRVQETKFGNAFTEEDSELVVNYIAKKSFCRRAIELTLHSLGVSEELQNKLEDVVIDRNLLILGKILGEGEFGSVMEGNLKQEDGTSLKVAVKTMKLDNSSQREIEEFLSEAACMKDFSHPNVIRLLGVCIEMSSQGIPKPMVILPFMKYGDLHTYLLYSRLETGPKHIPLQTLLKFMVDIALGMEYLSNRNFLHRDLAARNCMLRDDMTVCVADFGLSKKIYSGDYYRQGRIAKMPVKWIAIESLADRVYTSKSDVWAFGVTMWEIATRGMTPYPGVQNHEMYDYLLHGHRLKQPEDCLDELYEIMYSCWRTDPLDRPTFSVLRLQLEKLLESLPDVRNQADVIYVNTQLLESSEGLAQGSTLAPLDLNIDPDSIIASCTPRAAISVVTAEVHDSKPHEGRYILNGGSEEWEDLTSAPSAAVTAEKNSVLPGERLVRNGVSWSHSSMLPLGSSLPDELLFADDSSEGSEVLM

[5] = molecular target: T5, Mouse MerTK on mMerTK-expressing cells (mouse, UniProt Q60805 19-994); assay: cell-based or functional assay
T5 sequence: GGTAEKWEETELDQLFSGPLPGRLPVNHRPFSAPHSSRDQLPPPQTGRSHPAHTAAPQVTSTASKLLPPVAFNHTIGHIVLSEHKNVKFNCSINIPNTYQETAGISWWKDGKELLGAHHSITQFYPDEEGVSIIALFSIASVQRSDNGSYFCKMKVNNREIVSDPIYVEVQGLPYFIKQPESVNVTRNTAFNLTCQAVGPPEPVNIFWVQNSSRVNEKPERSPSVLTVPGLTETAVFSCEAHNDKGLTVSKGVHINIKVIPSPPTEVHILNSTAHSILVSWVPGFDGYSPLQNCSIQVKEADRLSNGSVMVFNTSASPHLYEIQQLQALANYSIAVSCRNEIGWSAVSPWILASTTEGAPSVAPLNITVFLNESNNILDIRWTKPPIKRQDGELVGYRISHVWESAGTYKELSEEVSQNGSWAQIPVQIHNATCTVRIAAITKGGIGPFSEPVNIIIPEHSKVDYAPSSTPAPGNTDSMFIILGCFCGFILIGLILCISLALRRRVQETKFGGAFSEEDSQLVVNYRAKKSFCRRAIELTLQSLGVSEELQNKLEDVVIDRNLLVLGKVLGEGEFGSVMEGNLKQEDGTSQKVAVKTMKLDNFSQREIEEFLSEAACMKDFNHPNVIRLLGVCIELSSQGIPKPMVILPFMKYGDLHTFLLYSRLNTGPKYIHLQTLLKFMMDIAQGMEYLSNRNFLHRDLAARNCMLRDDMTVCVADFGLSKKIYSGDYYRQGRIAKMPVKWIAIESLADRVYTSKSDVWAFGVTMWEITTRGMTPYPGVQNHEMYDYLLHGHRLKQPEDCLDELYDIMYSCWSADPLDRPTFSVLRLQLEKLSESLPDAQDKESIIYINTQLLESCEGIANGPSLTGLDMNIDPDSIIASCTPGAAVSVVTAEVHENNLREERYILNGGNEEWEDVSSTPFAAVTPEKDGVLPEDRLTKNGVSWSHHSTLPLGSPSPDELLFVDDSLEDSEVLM

[6] = molecular target: T4, Human MerTK on hMerTK-expressing cells; assay: binding to hMerTK-expressing cells

B1: MoMAb 16B9 (antibody, V domains shown)
VH: EVQLQQSRPDLVKPGASVKMSCKASGYTFIDYNMHWVKQRHGKSLEWIGYIHPNNGGTSYNQKFKDKATLTMNKSSSTAYMELRSLTSEDSAVYYCSRSGIYYDYDSFFDYWGQGTTLTVSS
VL: DIQMTQSPASLYVSVGETVTITCRASENIYSHLAWYQQKLGKSPHLLVYAATNLADGVPSRFSGSGSGTQYSLKINSLQSEDFGSYYCQHFWGSPWTFGGGTKLEIK
notes: Mouse mAb
[1]
  Kd: 35.1 nM
  koff: 0.00256 s⁻¹
  kon: 72700 M⁻¹ s⁻¹
  t1/2: 4.5 min
[2]
  Kd: > 250 nM
[3]
  Kd: > 100 nM
[4]
  Signaling Assay, hMerTK with Gas6, pSTAT1 IC50 (nM): > 100 nM
  Signaling Assay, hMerTK without Gas6, pSTAT1 IC50 (nM): > 100 nM
[5]
  Signaling Assay, mMerTK with Gas6, pSTAT1 IC50 (nM): 0.9 nM
[6]
  binding result: no binding
